{
  "source": "the nanobody polyreactivity screen of Harvey et al. (2022)",
  "data": [
    {"assay": "yeast display, Sf9 membrane polyspecificity reagent, FACS + sequencing; frameworks hold sequencing errors", "in_short": "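Galactose induction of a Saccharomyces cerevisiae BJ5465 synthetic nanobody display library ran 36–48 hours. The cells were then stained for 1 hour at 4 °C with 10% biotinylated, detergent-solubilized Sf9 membrane reagent, pulled down on streptavidin microbeads and FACS-sorted into low and high (top ~1%) gates on expression and reagent-binding fluorescence. Labels for polyreactivity follow the gate of origin.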", "values": [
      {"sequence": "QVQLVESGGGLVQAGGSLRLSCAASGPISAIYDMGWDRQAPGKERELVASISGGTSTYYADSVKGRFTISRDNAKNTVYLQMNSLKPEDTAVYYCNAEASSYHGVEDEYDYWGQGTQVTVSS", "polyreactivity (PSR sort gate)": "low polyreactivity"},
      {"sequence": "QVQLVESGGGLVQAGGSLRLSCAASGPTFGVYAKGWDRQAPGKEREFVAAISSTGGSTYYADSVKGRFTISRDNAKNTVYLQMNSLKPEDTAVYYCAARLHTYGYSYGYWGQGTQVTVSS", "polyreactivity (PSR sort gate)": "high polyreactivity"},
      {"sequence": "QVQLVESGGGLVQAGGSLRLSCAASGPTFYKYAMGWYRQAPGKERELVATITRRGGSTYYADSVKGRFTISRDNAKNTVYLQMNSLKPEDTAVYYCAKEIFLKGPDGHDYWGQGTQVTVSS", "polyreactivity (PSR sort gate)": "low polyreactivity"},
      {"sequence": "QVQLVESGGGLVQAGGSLRLSCAASGPTFYKYAMGWYRQAPGKERELVATITRRGGSTYYADSVKGRFTISRDNAKNTVYLQMNSLKPEDTAVYYCAKEIFQKGPDGHDYWGQGTQVTVSS", "polyreactivity (PSR sort gate)": "low polyreactivity"},
      {"sequence": "QVQLVESGGGLVQAGGSLRLSCAASGPTLHAYTMGWYRQAPGKERELVAAITRGGGNTYYADSVKGRFTISRDNAKNTVYLQMNSLKPEDTAVYYCNADVSGYLWYEYDYWGQGTQVTVSS", "polyreactivity (PSR sort gate)": "low polyreactivity"},
      {"sequence": "QVQLVESGGGLVQAGGSLRLSCAASGRICEVYAMGWYRQAPGKERELVAAINSGGSTRYADSVKGRFTISRDNAKNTVYLQMNSLKPEDTAVYYCNARPGYYRYLRGYNYWGQGTQVTVSS", "polyreactivity (PSR sort gate)": "low polyreactivity"},
      {"sequence": "QVQLVESGGGLVQAGGSLRLSCAASGRICGSYAMGWYRQAPGKERELVAAISWRGTSTYYADSVKGRFTISRDNAKNTVYLQMNSLKPEDTAVYYCAAAVDAFTNKQYYYWGQGTLVTVSS", "polyreactivity (PSR sort gate)": "low polyreactivity"},
      {"sequence": "QVQLVESGGGLVQAGGSLRLSCAASGRICGVYAMGWYRQAPGKERELVAAITARGGSTYYADSVKGRFTISRDNAKNTVYLQMNSLKPEVTAVYYCATRLYKRTRTITYGYWGQGTQVTVSS", "polyreactivity (PSR sort gate)": "high polyreactivity"},
      {"sequence": "QVQLVESGGGLVQAGGSLRLSCAASGRICWGYAMGWSRQAPGKERELVARITSGGDTYYADSVKGRFTISRDNAKNTVYLQMNSLKPEDTAVYYCAKSPAVKPYAYRESGFIYDYWGQGTQVTVSS", "polyreactivity (PSR sort gate)": "low polyreactivity"},
      {"sequence": "QVQLVESGGGLVQAGGSLRLSCAASGRIFAAYAMGWYRQAPGKERELVAGISRGGRTYYADSVKGRFTISRDNAKNTVYLQMNSLKPEDTAVYYCAKRATGQYSITAYGYDYWGQGTQVTVSS", "polyreactivity (PSR sort gate)": "low polyreactivity"},
      {"sequence": "QVQLVESGGGLVQAGGSLRLSCAASGRIFAAYAMGWYRQAPGKERELVAGISRGGRTYYADSVKGRFTISRDNAKNTVYLQMNSLKPEDTAVYYCAKRATGQYSITTYGYDYWGQGTQVTVSS", "polyreactivity (PSR sort gate)": "low polyreactivity"},
      {"sequence": "QVQLVESGGGLVQAGGSLRLSCAASGRIFADYAMGWYRQAPGKERELVAAIDWSDGSTKYADSVKGRFTISRDKAKNTVYLQMNSLKPEDTAVNYCAADYWPRDGLGWWYDYWGQGTQVTVSS", "polyreactivity (PSR sort gate)": "low polyreactivity"},
      {"sequence": "QVQLVESGGGLVQAGGSLRLSCAASGRIFAFNAMGWYRQAPGKERELVADITSSGVNTYYADSVKGRFTISRDNAKNTVYLQMNSLKPEDTAVYYCAARSYLRWWVGMEYCGQGTQVTVSS", "polyreactivity (PSR sort gate)": "low polyreactivity"},
      {"sequence": "QVQLVESGGGLVQAGGSLRLSCAASGRIFAFYAMGGYRQAPGKERELVAAITSGGSTKYADSVKGRFTISRDNAKNTVYLHMKSLKPEDTAVYYSAAQYRYQRYSDAMEYWGQGTQVTVSS", "polyreactivity (PSR sort gate)": "high polyreactivity"},
      {"sequence": "QVQLVESGGGLVQAGGSLRLSCAASGRIFAGYAMGWDRQAPGKERELVATISSGGSTYYADSVKGRFTISRDNAKNTVYLQMNSLKPEDTAVYYCAAEYGTRQYSSYYKLFNYWGQGTQVTVSS", "polyreactivity (PSR sort gate)": "low polyreactivity"},
      {"sequence": "QVQLVESGGGLVQAGGSLRLSCAASGRIFAGYAMGWYRQAPGKERELLATISSGGSTYFAHSVKGRFTISRDNAKNTVYLQMNSLKPEDTAVYYCSAEYGTRQYSCYYKLFNYWGQGTQVTVSS", "polyreactivity (PSR sort gate)": "low polyreactivity"},
      {"sequence": "QVQLVESGGGLVQAGGSLRLSCAASGRIFAGYAMGWYRQAPGKERELVAAISDGGTTNYADSVKGRFTISRDNAKNTVYLQMNSLKPEDTAVYYCAKVAAESYRYGYWGQGTQVTVSS", "polyreactivity (PSR sort gate)": "low polyreactivity"},
      {"sequence": "QVQLVESGGGLVQAGGSLRLSCAASGRIFAGYAMGWYRQAPGKERELVAGISNRGGSTYYADSVKGRFTISRDNAKKTVYLQMNRLKPEDTAVYYCAVRRRSLGGYWGQGTQVTVSS", "polyreactivity (PSR sort gate)": "high polyreactivity"},
      {"sequence": "QVQLVESGGGLVQAGGSLRLSCAASGRIFAGYAMGWYRQAPGKERELVARISRGDDSTYYADSVKGRFTISRDNAKNTVYLQMNSLKPEDTAFYFCAADYPDVVYLEYDYWGQGTQVTVSS", "polyreactivity (PSR sort gate)": "low polyreactivity"},
      {"sequence": "QVQLVESGGGLVQAGGSLRLSCAASGRIFAGYAMGWYRQAPGKERELVASIRSSGSTYYADSVKGRFTISRDNAKNTVYLQMNSLKPEDTAVYYCNAVPRRRRYSRLGYWGQGTQVTVSS", "polyreactivity (PSR sort gate)": "high polyreactivity"},
      {"sequence": "QVQLVESGGGLVQAGGSLRLSCAASGRIFAGYAMGWYRQAPGKERELVATITYRGGNTYYADSVKGRFTISRDNAKNTVYLQMNSLKPEDTAVYYCAKGPYRYLYRAYPGGYWGQGTQVTVSS", "polyreactivity (PSR sort gate)": "high polyreactivity"},
      {"sequence": "QVQLVESGGGLVQAGGSLRLSCAASGRIFAGYTMGWYRQAPGKERELVAAISGSGGRTYYADSVKGRFTISRDIAKNTVYLQMNSLKPEDTAVYYCAAYRSRTYGYWGQGTQVTVSS", "polyreactivity (PSR sort gate)": "high polyreactivity"},
      {"sequence": "QVQLVESGGGLVQAGGSLRLSCAASGRIFAHNAMGWYRQAPGKERELVAAISSSDGSTYYADSVKGRFTISRDNAKNTVYLQMNSLKPEDTAVYYCAARGSPSKHHWYDYWGQGTQVTVSS", "polyreactivity (PSR sort gate)": "low polyreactivity"},
      {"sequence": "QVQLVESGGGLVQAGGSLRLSCAASGRIFAHNAMGWYRQPPGKARELVAAITWSGGSTYYADSVKGRFTISRDNAKKTVYLQMNSLNPEDTAVYYCNNDSHGHLYNYWGQGTQVCVSS", "polyreactivity (PSR sort gate)": "low polyreactivity"},
      {"sequence": "QVQLVESGGGLVQAGGSLRLSCAASGRIFAINTMGWYRQAPGKERELVAAINNGGSTNYADSVKGRFTISRDNAKNTVYLQMNSLKPEDTAVYYCAAEGLPYVRVFDFVSRYDYWGQGTQVTVSS", "polyreactivity (PSR sort gate)": "low polyreactivity"},
      {"sequence": "QVQLVESGGGLVQAGGSLRLSCAASGRIFALNVMGWYRQAPVKERELFAVINRSGNTNYADSVKGRFTSSRDNAKNTVYLQMNSLKPEDTAVYYCAARRVGYGTDRYYGYDSWGQGTQVTVSS", "polyreactivity (PSR sort gate)": "high polyreactivity"},
      {"sequence": "QVQLVESGGGLVQAGGSLRLSCAASGRIFANYAMGWYRQAPGKERELVAAIYWSDDDTYYADSVKGRFTISRDNAKNTVYFQMNRLIPEDTAVYYCAADGRYGWYYGVYNGEDYWGQGTQVTVSS", "polyreactivity (PSR sort gate)": "high polyreactivity"},
      {"sequence": "QVQLVESGGGLVQAGGSLRLSCAASGRIFAQNAMGWYRQAPGKERELVAAISWGGGGTYYADSVKGRFTISRDNAKNTVYLQMNSLKPEDTAVYYCAADSPGFGAWDRYEYWGQGTQVTVSW", "polyreactivity (PSR sort gate)": "low polyreactivity"},
      {"sequence": "QVQLVESGGGLVQAGGSLRLSCAASGRIFARNAMGWYRQAPGKERELVAAISWSGGRTYYADSVKGRFTISRDNAKNTVYLQMNSLKPEDTAVYYCAADHYPWWAWEFDYWGQGTQVTVSS", "polyreactivity (PSR sort gate)": "low polyreactivity"},
      {"sequence": "QVQLVESGGGLVQAGGSLRLSCAASGRIFARNAMGWYRQAPGKERELVAAITYSGGSTYYADSVKGRFTISRDNAKNTVYLQMNSLKPEDTAVYYCAAETSNRGRRYYYWGQGTQVTVSS", "polyreactivity (PSR sort gate)": "high polyreactivity"},
      {"sequence": "QVQLVESGGGLVQAGGSLRLSCAASGRIFARYAKGWSRQAPGKERELVAAISRGGSTKNADSVKGRFTISRDNAKITVYLQMNSLKPEDTAVYYCATEYYGPVYDLDYDYWGQGTQVTVSS", "polyreactivity (PSR sort gate)": "low polyreactivity"},
      {"sequence": "QVQLVESGGGLVQAGGSLRLSCAASGRIFARYAMGWYRQAPGKERELVAAITNVGSTYADSVKGRFTISRDNAKNTVYLQMNSLKPEDTAVYYCAARSKYDQVRATFWLFDYWGQGTQVTVSS", "polyreactivity (PSR sort gate)": "low polyreactivity"},
      {"sequence": "QVQLVESGGGLVQAGGSLRLSCAASGRIFARYAMGWYRQAPGKERELVAAITSRGGSTYYADSVKGRFTISRDNAKNTVYLQMNSLKPEDTAVYYCNADYYRRPYYYWGQGTQVTVSS", "polyreactivity (PSR sort gate)": "high polyreactivity"},
      {"sequence": "QVQLVESGGGLVQAGGSLRLSCAASGRIFARYAMGWYRQAPGKERELVASINSGGNTYYADSVKGRFTISRDNAKNTVYLQMNSLKPEDTAVYYCAAVVGRRASSRSRFEYDYWGQGTQVTVSS", "polyreactivity (PSR sort gate)": "low polyreactivity"},
      {"sequence": "QVQLVESGGGLVQAGGSLRLSCAASGRIFARYVMGWYRQAPGKERELVAAISRRAGNTYYADSVKGRFTISRDNAKNTVYLQMNSLKPEDTAVYYCAVRYSYYALSTSRYGYWGQGTQVTVSS", "polyreactivity (PSR sort gate)": "high polyreactivity"},
      {"sequence": "QVQLVESGGGLVQAGGSLRLSCAASGRIFASYAMGWYRQAPGKERELVAAISLSGGSTYYADSVKGRFTISRDNAKNTVYLQMNSLKPEDTAVYYCAAKNYRRYRDYYWGQGTQVTVSS", "polyreactivity (PSR sort gate)": "high polyreactivity"},
      {"sequence": "QVQLVESGGGLVQAGGSLRLSCAASGRIFATNAMGLYRPAPGKERELVATITRSAGRTYYADSVKGRFTISRDNAKNTVYLQMNSLKPEDTAVYYCAASYWDTEPGYREYVYWGQGTQVTVSS", "polyreactivity (PSR sort gate)": "low polyreactivity"},
      {"sequence": "QVQLVESGGGLVQAGGSLRLSCAASGRIFATNAMGWYRPAPGKERELVATITRSAGRTYYADSVKGRFTISRDNAKNTVYLQMNSLKPEDTAVYYCAASYWDTEPGYREYDYWGQGTQVTVSS", "polyreactivity (PSR sort gate)": "low polyreactivity"},
      {"sequence": "QVQLVESGGGLVQAGGSLRLSCAASGRIFAVYAMGWYRQAPGKERELVAAISWSGGRTNYADSVKGRFTISRDNAKKTVYLQMNSLKPEDTAVYYCNARQWRFGFVASGGKYNYWGQGTQVTVSA", "polyreactivity (PSR sort gate)": "high polyreactivity"},
      {"sequence": "QVQLVESGGGLVQAGGSLRLSCAASGRIFAWYAMGWYRQAPGKDRELVAAISDSGGSTYYADSVKGRFTISRDNAKNTVYLQMNSLKPEVTAVYYWAADQVVYYAYWSDHYDDWGQGTQVTVSS", "polyreactivity (PSR sort gate)": "low polyreactivity"},
      {"sequence": "QVQLVESGGGLVQAGGSLRLSCAASGRIFAWYAMGWYRQAPGKEREFVAAISRGGSTYYADSVKGRFTISRDNAKNTVYLQMNSLKPEDTAVYYCAASSPSSGRFDYWGQGTQVTVSS", "polyreactivity (PSR sort gate)": "high polyreactivity"},
      {"sequence": "QVQLVESGGGLVQAGGSLRLSCAASGRIFAYNTMGWYREAPGKERELVAVSTSGGSTNYADSVKGRFTISRDNAKNTVYLQMNSLKPEDSAVYYCAKRPYGRSGGSRYDYWGQGTQVTVSS", "polyreactivity (PSR sort gate)": "high polyreactivity"},
      {"sequence": "QVQLVESGGGLVQAGGSLRLSCAASGRIFAYNTMGWYRQAPGKERELVAVITSGGSTNYADSVNGRFTISRDNAKNTVYLQMNSLKPEDTAVYYCAKRPYGRSGGSRYDYWGQGTQVTVSS", "polyreactivity (PSR sort gate)": "high polyreactivity"}
    ]}
  ]
}
